Five molecules from publication PMC4551533, “Selection of DNA aptamers for ovarian cancer biomarker HE4 using CE-SELEX and high-throughput sequencing” can be followed below.

Series [1] addresses T1, HE4-GST (human) (UniProt Q14508).
T1 sequence: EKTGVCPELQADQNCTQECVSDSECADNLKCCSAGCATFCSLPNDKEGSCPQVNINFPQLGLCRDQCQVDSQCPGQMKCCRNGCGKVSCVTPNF
Put plainly: fluorescence anisotropy. To be noted: TGK: 25 mM Tris, 192 mM glycine, 5 mM KH2PO4, pH 8.3, 25 C, no divalent cations; APCE 10 nM DNA, 1 mg/mL BSA; anisotropy 0.1 mg/mL BSA, HE4-GST 0-750 nM.

In series [2] the target is T2, HE4-GST (human, UniProt Q14508 31-124).
T2 sequence: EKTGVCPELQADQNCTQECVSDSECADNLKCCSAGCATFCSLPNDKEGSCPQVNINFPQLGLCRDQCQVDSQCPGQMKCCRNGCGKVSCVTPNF
Put plainly: affinity probe capillary electrophoresis; TGK: 25 mM Tris, 192 mM glycine, 5 mM KH2PO4, pH 8.3, 25 C, no divalent cations; APCE 10 nM DNA, 1 mg/mL BSA; anisotropy 0.1 mg/mL BSA, HE4-GST 0-750 nM. To be noted: protein: commercial; tags: GST; label: 5' FAM (APCE); 5' TEX615 (anisotropy).

Series [3] concerns the target T2, HE4-GST. Put plainly: fluorescence anisotropy; TGK: 25 mM Tris, 192 mM glycine, 5 mM KH2PO4, pH 8.3, 25 C, no divalent cations; APCE 10 nM DNA, 1 mg/mL BSA; anisotropy 0.1 mg/mL BSA, HE4-GST 0-750 nM. To be noted: protein: commercial; tags: GST; label: 5' FAM (APCE); 5' TEX615 (anisotropy). (In fluorescence polarisation assays a small probe gives low polarisation when free and higher when bound to something large.)

Series [4] has as its target T2, HE4-GST. The series can be described thus: affinity probe capillary electrophoresis; discrepant with anisotropy; TGK: 25 mM Tris, 192 mM glycine, 5 mM KH2PO4, pH 8.3, 25 C, no divalent cations; APCE 10 nM DNA, 1 mg/mL BSA; anisotropy 0.1 mg/mL BSA, HE4-GST 0-750 nM. To be noted: protein: commercial; tags: GST; label: 5' FAM (APCE); 5' TEX615 (anisotropy).

For ATGGTCGCAAGAACTGAGAATTTAC [D3], in series [1], the Kd is 26000 nM.

As for CAGTGCGTGCTTATTGGCGTAGCGTC (ssDNA) [B10], the Kd is 870 nM in series [2] and 280 nM in series [3].

Regarding CACAGTGCGTCACATTTAGGGCATT (ssDNA) [A3], the Kd was determined as 500 nM in series [2] and 9100 nM in series [3].

Consider CCGTCTTCTGCTTGAAAAAAAAAAA (ssDNA) [L1], for which the Kd in series [4] was 300 nM.

With TTATCGTACGACAGTCATCCTACAC (ssDNA) [A1], the Kd is 390 nM in series [2] and 2200 nM in series [3].

As a reminder, the Kd is the equilibrium constant for the complex coming apart.
